In article PMC12368178:
Where “and” joins values, the source holds several entries; their conditions need not be identical. Identical values can stand only once.

Biological target: 16055 DG4 NFL trimer (HIV-1 (Indian subtype C 16055 strain))
Test: SEC + native gel or EMSA

16055 DG4 NFL trimer
stoichiometry N: 3 and 6
